Among the data in publication PMC7952403 (Nature Communications, 2021) are EC50 and IC50 values, retold here.

In assay [1] the target is T1, SARS-CoV-2 RBD-SD1 with murine IgG2a Fc part, produced in High Five cells (SARS-CoV-2, UniProt P0DTC2).
T1 construct: source: High Five insect cells, transient transfection, purified (Protein A)
The assay can be described thus: ELISA. Particulars: both partners purified.

Assay [2] addresses T1, SARS-CoV-2 RBD-SD1 with murine IgG2a Fc …. The assay can be described thus: flow cytometry on cells. Particulars: both partners purified.

B1: STE72-4E12 scFv-Fc (scFv, V domains shown)
VH: QVQLVQSGAEVKKPGASVKVSCKASGYTFTSYYMHWVRQAPGQGLEWMGIINPSGGSTSYAQKFQGRVTMTRDTSTSTVYMELSSLRSEDTAVYYCARDLSGGLDYWGQGTLVTVSS
VL: ETTLTQSPATLSVSPGERVTLACRAGQTISSKLAWYRQKPGQAPSLLIYDASTRATGVPARFSGSGSGTEFTLTISSLQSEDFAVYYCQQYSDWPPTFGQGTKVEIK
notes: also called scFv-hFc; source: Expi293F, transient transfection, purified (Protein A)
B1 had an EC50 in assay [1] of 1.5 nM. Also, inhibition in assay [2] was half-maximal at 3 nM (IC50).
